Results reported in patent publication US12371726B2, “Process to produce mono-rhamnolipids” (Conopco, Inc., priority 2021, dated 2025).

Key:
[1] = test system: α-L-rhamnosidase from A. terreus; test: Influence of rhamnose excess on rhamnosidase activity (product inhibition); format: biochemical, Aspergillus terreus; conditions: pNPR substrate, rhamnose solutions 0.6-3 mM added 1:1:1, pH 6.5, 40° C., 30 minutes
Method: The analysis was performed only for α-l-rhamnosidase from A. terreus. The influence of rhamnose excess on enzyme activity was investigated using the same colorimetric method as described above (See FIG. 1). The pNPR substrate was first dissolved in DMSO, with concentration adjusted to 300 μM in 100 mM sodium phosphate buffer pH 6.5. Enzymes were diluted to concentration of 30 μg/mL in 100 mM sodium phosphate buffer pH 6.5. Following sequence of rhamnose concentrations were prepared in 100 mM sodium phosphate buffer pH 6.5: 0.6 mM, 1.2 mM, 1.8 mM, 2.4 mM, 3 mM. 240 μL of the total reaction mixture was prepared by adding the substrate solution, the enzyme solution and the rhamnose solution in 1:1:1 ratio. The activity assay was performed on 96-well Microtiter UV plate by Thermo Scientific (Waltham, MA USA). All reactions were done at pH 6.5 and in temperature 40° C. The changes in absorbance were monitored at 405 nm for 30 minutes in Microplate reader Varioskan® Flash. The relative activity of α-L-rhamnosidase from A. terreus was measured using pNPR substrate in the excess of rhamnose in the reaction mix. The analysis was performed in order to study product inhibition phenomenon.

[2] = Rhamnosidase activity assessment, colorimetric method using pNPR; format: biochemical; conditions: 40° C.
Method: α-l-Rhamnosidase activity of enzyme from A. terreus and enzyme from A. niger was determined by a colorimetric method using p-nitrophenyl-α-l-rhamnopyranoside (pNPR) (See the chemical formula equation shown in FIG. 1). The pNPR substrate was first dissolved in DMSO, with concentration adjusted to 200 μM in 100 mM sodium phosphate buffer pH 6.5. Enzymes were diluted to concentration of 20 μg/mL in 100 mM sodium phosphate buffer pH 6.5. The reaction was prepared by mixing the substrate solution with enzyme solution in 1:1 ratio. The activity assay was performed on 96-well Microtiter UV plate by Thermo Scientific (Waltham, MA USA). All reactions were done at pH 6.5 and in temperature 40° C. The changes in absorbance were monitored at 405 nm for 60 minutes in Microplate reader Varioskan® Flash. The relative activity of α-L-rhamnosidase from A. terreus and α-L-rhamnosidase from A. niger were measured against the p-NPR. The reaction was monitored in time at 40° C. and pH 6.5 (See FIG. 3). The enzymes caused release of the product—4-nitrophenol. […] The 70% conversion of R2 is plenty sufficient for test purposes, therefore the enzyme with faster kinetics was used for further analysis.

[3] = β-D-glucosidase activity assessment, colorimetric method using pNPG; format: biochemical
Method: β-D-glucosidase activity of enzyme from A. terreus was determined by a colorimetric method using p-nitrophenyl-β-glucopyranoside (pNPG). The pNPG substrate was first dissolved in DMSO, with concentration adjusted to 200 μM in 100 mM sodium phosphate buffer pH 6.5. To analyse the substrate preference, the pNPG was mixed with pNPR at 1:1 ratio, then dissolved in DMSO, and concentration of such mixture was adjusted to 200 μM in 100 mM sodium phosphate buffer pH 6.5. As a control, pNPR, prepared as above, at concentration of 200 μM was used. Enzyme was diluted to concentration of 20 μg/mL in 100 mM sodium phosphate buffer pH 6.5. The reactions were prepared by mixing the substrate solution with enzyme solution in 1:1 ratio. The activity assay was performed on 96-well Microtiter UV plate by Thermo Scientific (Waltham, MA USA). […] The changes in relative absorbance values were monitored at 405 nm for about 30 minutes in Microplate reader Varioskan® Flash.
pNPG was used as a substrate to monitor β-D-glucosidase activity of enzyme from A. terreus, the pNPR was used as a substrate showing α-l-rhamnopyranoside activity, and mixture of both substrates was used to determine substrate preference (see FIG. 5). […] The absorbance signal was not detected for the reaction with pNPG, and the reaction kinetics observed for pNPR substrate was not impacted by presence of pNPG in the reaction with mixed substrates.

C[C@H](O)[C@H](O)[C@@H](O)[C@@H](O)C=O [rhamnose]
effect of added rhamnose on substrate conversion rate [1]: substrate conversion rate decreased

B1: enzyme from A. niger: α-L-rhamnosidase from Aspergillus niger obtained from Megazyme LTD; SEQ ID. 2 (protein)
chain: MAPIALKILLFTSLIVPSISLSDQARNGHARTICEVKPGGSSEIDDVPAIVDALTTCGSGGRVIFSNNTYHINSVMNTTWLDDVEIDLQGTLLWSTNISYWLNHSLPVGYQNQSTAWILGGKDIVFEGHGYGTFNGSGQTWYRYVGSTSNYPRRPNQLTVSGAMGAVFKGLRFVQSQMWTMSIIHTSNSWFDSIYVNNLYDDGGSAQNTDGANTIYSKNITLTNWEVVNGDDSISTKANSTDITIANCTFTSGLGIAIGSIGQYNGAFETVERLKISNITYEKTTHAVYFKTWTGDQVGYPPNGGGGGLGYASDIVATNLKTNNLKGAPFTISQCTTFSGASGNCTNSKFQIRDLVFTDISGTTDSSDVASFQCSAVAPCEDITIENVSLRIAGNTTHAEEYLCGNVDGTVGFNCTGDVCVGSSATGGC
modifications: Aspergillus niger
time to reach about 70% of converted substrate ([2]; pNPR 100 μM, pH 6.5): 30 min
substrate converted more than A. terreus enzyme after 60 min ([2]; pNPR 100 μM, pH 6.5, 60 min): 10%

B2: enzyme from A. terreus: recombinant α-L-rhamnosidase from Aspergillus terreus, prepared internally, secreted in P. pastoris; SEQ ID. 1 (protein, listed as Aspergillus terreus)
chain: MALSISQVAFEHHRTALGIGETQPRVSWRFDGNVSDWEQRAYEIEVKRAGHDADVFRSESSDSVLVPWPSSPLQSGEEATVRVRSFGSDGQHDTPWSDAVTVEPGLLTPDDWHDAVVIASDRPTEVDATHRPIQFRKEFSVDDSYVSARLYITALGLYEARINDQRVGDHVMAPGWQSYQYRHEYNTYDVTDLLKQGPNAIGVTVGEGWYSGRIGYDGGKRNIYGDTLGLLSLLVVTKSDGSKLYIPSDSSWKSSTGPIISSEIYDGEEYDSRLEQKGWSQVGFNSTGWLGTHELSFPKERLASPDGPPVRRVAEHKLANVFSSASGKTVLDFGQNLVGWLRIRVKGPKGQTIRFVHTEVMENGEVATRPLRQAKATDHFTLSGEGVQEWEPSFTYHGFRYVQVDGWPADTPLDENSVTAIVVHSDMERTGYFECSNPLISKLHENILWSMRGNFFSIPTDCPQRDERLGWTGDIHAFSRTANFIYDTAGFLRAWLKDARSEQLNHSYSLPYVIPNIHGNGETPTSIWGDAIVGVPWQLYESFGDKVMLEEQYGGAKDWVDKGIVRNDVGLWDRSTFQWADWLDPKAPADDPGDATTNKYLVSDAYLLHSTDMLANISTSLSKGEEASNYTEWHAKLTKEFQKAWITSNGTMANETQTGLALPLYFDLFPSAEQAQSAAKRLVNIIKQNDYKVGTGFAGTHLLGHTLSKYGESDAFYSMLRQTEVPSWLYQVVMNGTTTWERWDSMLPNGSINPGQMTSFNHYAVGSVGSWLHEVIGGLSPAEPGWRRINIEVVPGGDLQQASTKFLTPYGMASTKWWLDGQDQSCGGFDFHLVAEVPPNTRATVVLPGKGGEKVDVGSGVHEYHVRCVKL
substrate preference, pNPR versus pNPG and mixed substrates ([3]; pNPG mixed with pNPR 1:1, pH 6.5, 40° C.): recognized only pNPR as a substrate
absorbance signal at 405 nm with pNPG (β-D-glucosidase activity) ([3]; pNPG, pH 6.5, 40° C., about 30 minutes): not detected
converted substrate at plateau ([2]; pNPR 100 μM, pH 6.5): 70%
time to reach about 70% of converted substrate ([2]; pNPR 100 μM, pH 6.5): 10 min
kinetic behaviour compared between the two enzymes ([2]; pNPR, pH 6.5): acting faster
